Among the data in PMC10269810, “RNA Encapsulation Mode and Evolutionary Insights from the Crystal Structure of Emaravirus Nucleoprotein” are stoichiometry N and Kd values, retold here.

Data set [1] has as its target fig mosaic virus nucleoprotein, full length (N^fl) (fig mosaic virus). The data set can be described thus: SEC-MALS; RNA-free purified N^fl; conditions not given. For orientation: In gel filtration, larger molecules generally elute earlier.
Data set [2] concerns the target trypsin-treated fig mosaic virus nucleoprotein lacking the first 45 N-terminal residues (N^ΔN45) (fig mosaic virus). The data set can be described thus: crystal structure; RNA-free N^ΔN45, hanging drop at 16°C, sodium formate pH 7.0, space group P2_(1), four molecules in the asymmetric unit.
Data set [3] has the same target. The data set can be described thus: crystal structure; N^ΔN45 co-crystallized with 42-mer poly(U) ssRNA, 20% PEG 3350, 0.2 M magnesium formate pH 5.9, space group P2_(1)2_(1)2_(1).
The next data set has as its target FMV N full length (Nfl) (Fig mosaic virus (Fimoviridae, …, UniProt I2FFM8 1-315)). Kind of data set: fluorescence polarization; RNA 1 uM; ITC: 20 mM Tris pH 7.4, 150 mM NaCl, 5% glycerol, 5 mM beta-ME, 25 C; FP: 1 uM RNA, 37 C 20 min incubation, buffer not stated (protein stock 20 mM Tris pH 7.5). The conditions noted are these: protein: recombinant; tags: N-terminal 6xHis removed by TEV; chain copies: 4; label: 5' 6-carboxyfluorescein (FAM); single strand. (In general: Polarisation of emitted light reports the rotation of a fluorescent probe.)

The stoichiometry N is a count of units in the complex or per binding partner. As usually defined, the Kd is the constant that tells how readily two partners part at equilibrium.

Where “and” joins values, the source holds several entries; their conditions need not be identical. Equal entries are not always repeated.

Consider “fig mosaic virus nucleoprotein, full length (N^fl) (natural protein)”, for which the stoichiometry N in data set [1] is 4 and 3 and 5.
“trypsin-treated fig mosaic virus nucleoprotein lacking the first 45 N-terminal residues (N^ΔN45) (domain or fragment)”: the stoichiometry N in data set [2] and in data set [3] was 4 throughout.
With UUUUUUUUUUUUUUUUUUUUUUUUUUUUUUUUUUUUUUUUUU (ssRNA) [poly(rU) 42-mer, FAM], in the data set with FMV N full length (Nfl), the Kd is roughly 5 µM.
